Experimental data as given in paper PMC4769845, “Structures of EccB1 and EccD1 from the core complex of the mycobacterial ESX-1 type VII secretion system” (BMC Structural Biology, 2016).

B1: cytoplasmic domain of EccD1 from M. tuberculosis (cyto-EccD1mt) (domain or fragment)
chain: ATTRVTILTGRRMTDLVLPAAVPMETYIDDTVAVLSEVLEDTPADVLGGFDFTAQGVWAFARPGSPPLKLDQSLDDAGVVDGSLLTLVS
notes: also called Rv3877; not shown: His6, N-terminal, cleaved
B2: cyto-EccD1mt fused to maltose binding protein (MBP-cyto-EccD1mt) (domain or fragment)
chain: B1 chain
notes: EccD1 (Rv3877) of Mycobacterium tuberculosis H37Rv, cytoplasmic ubiquitin-like domain, residues 21-109, the same DNA fragment as in m1, placed after MBP; also called MBP fusion protein; not shown: His6, N-terminal, cleaved; MBP, N-terminal, kept

What was measured:
[1] = molecular target: the molecule itself; assay: crystal structure; cyto-EccD1mt alone; sitting drop, 0.1 M Tris-HCl pH 8.5, 0.2 M Mg chloride, 30 % PEG4000; two molecules in the asymmetric unit; 1.88 Å
[2] = molecular target: the molecule itself; assay: crystal structure; MBP-cyto-EccD1mt fusion, maltose-bound; sitting drop, 0.1 M HEPES pH 7.5, 1.4 M Na citrate; two molecules in the asymmetric unit; 2.20 Å

Row | Protein | binding result [1] | binding result [2]
1 | B1 | binds | 
2 | B2 |  | binds
